In US20140294898A1 (published 2014) one finds IC50 data, which are given here for 6 molecules.

Positions of bridges follow the written chain, without caps; N, C: chain ends. Non-standard residues stand in square brackets, D forms with d. NMeNle = CCCC[C@H](NC)C(=O)O; NMeA = CN[C@@H](C)C(=O)O; Sar = CNCC(=O)O

B1: Compound No. 15 (peptide)
peptide: {CH2CO}-F[NMeA]NPHL[Sar]ASW[NMeNle][NMeNle]RCG-NH2
modifications: thioether N-14
SMILES: CCCC[C@H]1C(=O)N(C)[C@@H](CCCC)C(=O)N[C@@H](CCCNC(=N)N)C(=O)N[C@H](C(=O)NCC(N)=O)CSCC(=O)N[C@@H](Cc2ccccc2)C(=O)N(C)[C@@H](C)C(=O)N[C@@H](CC(N)=O)C(=O)N2CCC[C@H]2C(=O)N[C@@H](Cc2c[nH]cn2)C(=O)N[C@@H](CC(C)C)C(=O)N(C)CC(=O)N[C@@H](C)C(=O)N[C@@H](CO)C(=O)N[C@@H](Cc2c[nH]c3ccccc23)C(=O)N1C
notes: macrocyclic peptide, Formula I series; also called Compound 15
B2: Compound No. 22 (peptide)
peptide: {CH2CO}-F[NMeA]NPHL[Sar]WSW[NMeNle][NMeNle]ACG-NH2
modifications: thioether N-14
SMILES: CCCC[C@H]1C(=O)N(C)[C@@H](CCCC)C(=O)N[C@@H](C)C(=O)N[C@H](C(=O)NCC(N)=O)CSCC(=O)N[C@@H](Cc2ccccc2)C(=O)N(C)[C@@H](C)C(=O)N[C@@H](CC(N)=O)C(=O)N2CCC[C@H]2C(=O)N[C@@H](Cc2c[nH]cn2)C(=O)N[C@@H](CC(C)C)C(=O)N(C)CC(=O)N[C@@H](Cc2c[nH]c3ccccc23)C(=O)N[C@@H](CO)C(=O)N[C@@H](Cc2c[nH]c3ccccc23)C(=O)N1C
notes: macrocyclic peptide, Formula I series; also called Compound 22
B3: Compound No. 16 (peptide)
peptide: {CH2CO}-F[NMeA]NPHL[Sar]WAW[NMeNle][NMeNle]RCG-NH2
modifications: thioether N-14
SMILES: CCCC[C@H]1C(=O)N(C)[C@@H](CCCC)C(=O)N[C@@H](CCCNC(=N)N)C(=O)N[C@H](C(=O)NCC(N)=O)CSCC(=O)N[C@@H](Cc2ccccc2)C(=O)N(C)[C@@H](C)C(=O)N[C@@H](CC(N)=O)C(=O)N2CCC[C@H]2C(=O)N[C@@H](Cc2c[nH]cn2)C(=O)N[C@@H](CC(C)C)C(=O)N(C)CC(=O)N[C@@H](Cc2c[nH]c3ccccc23)C(=O)N[C@@H](C)C(=O)N[C@@H](Cc2c[nH]c3ccccc23)C(=O)N1C
notes: macrocyclic peptide, Formula I series; also called Compound 16
B4: Compound No. 25 (peptide)
peptide: {CH2CO}-W[NMeA]NPHL[Sar]WSW[NMeNle][NMeNle]RCG-NH2
modifications: thioether N-14
SMILES: CCCC[C@H]1C(=O)N(C)[C@@H](CCCC)C(=O)N[C@@H](CCCNC(=N)N)C(=O)N[C@H](C(=O)NCC(N)=O)CSCC(=O)N[C@@H](Cc2c[nH]c3ccccc23)C(=O)N(C)[C@@H](C)C(=O)N[C@@H](CC(N)=O)C(=O)N2CCC[C@H]2C(=O)N[C@@H](Cc2c[nH]cn2)C(=O)N[C@@H](CC(C)C)C(=O)N(C)CC(=O)N[C@@H](Cc2c[nH]c3ccccc23)C(=O)N[C@@H](CO)C(=O)N[C@@H](Cc2c[nH]c3ccccc23)C(=O)N1C
notes: macrocyclic peptide, Formula I series; also called Compound 25
B5: Compound No. 30 (peptide)
peptide: {CH2CO}-Y[NMeA]NPHL[Sar]WSW[NMeNle][NMeNle]RCG-NH2
modifications: thioether N-14
SMILES: CCCC[C@H]1C(=O)N(C)[C@@H](CCCC)C(=O)N[C@@H](CCCNC(=N)N)C(=O)N[C@H](C(=O)NCC(N)=O)CSCC(=O)N[C@@H](Cc2ccc(O)cc2)C(=O)N(C)[C@@H](C)C(=O)N[C@@H](CC(N)=O)C(=O)N2CCC[C@H]2C(=O)N[C@@H](Cc2c[nH]cn2)C(=O)N[C@@H](CC(C)C)C(=O)N(C)CC(=O)N[C@@H](Cc2c[nH]c3ccccc23)C(=O)N[C@@H](CO)C(=O)N[C@@H](Cc2c[nH]c3ccccc23)C(=O)N1C
notes: macrocyclic peptide, Formula I series; also called Compound 30
B6: Compound No. 43 (peptide)
peptide: {CH2CO}-F[NMeA]GPHL[Sar]WSW[NMeNle][NMeNle]RCG-NH2
modifications: thioether N-14
SMILES: CCCC[C@H]1C(=O)N(C)[C@@H](CCCC)C(=O)N[C@@H](CCCNC(=N)N)C(=O)N[C@H](C(=O)NCC(N)=O)CSCC(=O)N[C@@H](Cc2ccccc2)C(=O)N(C)[C@@H](C)C(=O)NCC(=O)N2CCC[C@H]2C(=O)N[C@@H](Cc2c[nH]cn2)C(=O)N[C@@H](CC(C)C)C(=O)N(C)CC(=O)N[C@@H](Cc2c[nH]c3ccccc23)C(=O)N[C@@H](CO)C(=O)N[C@@H](Cc2c[nH]c3ccccc23)C(=O)N1C
notes: macrocyclic peptide, Formula I series; also called Compound 43

For this assay, the target named is T1, human PD-L1 (human, UniProt Q9NZQ7 19-239, limits assumed).
T1 construct: also called Hu PD-L1; hPD-L1
T1 sequence (Q9NZQ7 19-239 limits assumed): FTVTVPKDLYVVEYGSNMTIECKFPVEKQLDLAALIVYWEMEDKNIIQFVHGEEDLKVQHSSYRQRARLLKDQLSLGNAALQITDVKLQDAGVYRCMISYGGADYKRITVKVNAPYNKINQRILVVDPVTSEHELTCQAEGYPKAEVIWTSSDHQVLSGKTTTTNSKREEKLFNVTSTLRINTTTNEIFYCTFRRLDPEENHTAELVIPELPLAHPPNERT
The assay is described as follows: cell binding assay, inhibition of Hu PD-L1/PD-1 binding.
B1 registered an IC50 of 1910 nM.

The molecule B2 gave a 50% inhibitory concentration (IC50) of 28 nM.

B3 yielded an IC50 of 13 nM.

B4 displayed a half-inhibitory concentration (IC50) of 19 nM.

Molecule B5 showed an IC50 of 3 nM.

On to B6, for which the half-maximal inhibitory concentration (IC50) stood at 5330 nM.

As usually defined, the IC50 is the concentration needed to halve the response being measured. Low readings indicate higher potency, high ones lower potency.
